Data on 68 sequences can be found in the supplement of paper PMC10724198.

± gives the standard deviation of the averaged measurements.

This series relates to Saccharomyces cerevisiae. The experiment in a line: protein stability index of tFT-peptide fusion (C-terminal peptide) (PSI (0-1 scale)); higher = more stable (slower turnover). To be noted: temperature: 30 C. How it is done:
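MPS profiling in S. cerevisiae of the yeast C-terminome library: the last 12 aa of each annotated ORF are fused to the C-terminus of a sfGFP-mCherry timer, after a GGGS linker. Cells are FACS-sorted into 8 mCherry/sfGFP bins and deep-sequenced. PSI runs from 0 (unstable) to 1 (stable); wild type and das1Δ backgrounds, two technical replicates each.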

Setting [1] is: genetic background: das1 deletion.

With CFRWLVRNHLLS [YEL045C C-terminal 12 aa], the protein stability index reads like this: under setting [1], 0.692 ± 0.0081; (genetic background: wild type) 0.187 ± 0.0022.

Take CHAYAKKAKEFL [PAM17 C-terminal 12 aa]: the protein stability index reads like this: under setting [1], 0.694 ± 0.019; (genetic background: wild type) 0.7 ± 0.047.

Take CKSHAITNNITM [YER152C C-terminal 12 aa]: the protein stability index by setting is: under setting [1], 0.711 ± 0.026; (genetic background: wild type) 0.687 ± 0.0091.

Consider CPTPGCTCQCNK [SEA4 C-terminal 12 aa], for which the protein stability index by setting is: under setting [1], 0.69 ± 0.015; (genetic background: wild type) 0.659 ± 0.0093.

CRKGVSHKGVCH [YBL111C C-terminal 12 aa]: the protein stability index is 0.721 ± 0.026 under setting [1] and 0.71 ± 0.035 (genetic background: wild type).

As for “CSTFAFAERLQC [YIL021C-A C-terminal 12 aa]”, the protein stability index under setting [1] was determined as 0.6901 ± 0.003 and the protein stability index (genetic background: wild type) was determined as 0.642 ± 0.029.

For the sequence CYYKTQKSQISN [SIP1 C-terminal 12 aa], the protein stability index is 0.715 ± 0.011 under setting [1] and 0.727 ± 0.016 (genetic background: wild type).

For DALHKMDKNVLE [YOL029C C-terminal 12 aa], the protein stability index came out at 0.696 ± 0.028 under setting [1] and 0.728 ± 0.076 (genetic background: wild type).

Take DAMEFIAQSHKS [OCT1 C-terminal 12 aa]: the protein stability index runs as follows: under setting [1], 0.694 ± 0.011; (genetic background: wild type) 0.719 ± 0.021.

As to DASALIEIQEKC [SST2 C-terminal 12 aa], the protein stability index under setting [1] stood at 0.669 ± 0.021 and the protein stability index (genetic background: wild type) was 0.695 ± 0.059.

As to DASSTKNTDHIV [MEP2 C-terminal 12 aa], the protein stability index stood at 0.678 ± 0.014 under setting [1] and 0.679 ± 0.068 (genetic background: wild type).

DDDDDDDDDEAD [RAD6 C-terminal 12 aa] had a protein stability index under setting [1] of 0.686 ± 0.015 and a protein stability index (genetic background: wild type) of 0.667 ± 0.0086.

For the sequence DDDEMDIEFEDV [TFA1 C-terminal 12 aa], the protein stability index came to 0.71135 ± 0.00066 under setting [1] and 0.739 ± 0.01 (genetic background: wild type).

As to DDEAGALIPENC [SOL4 C-terminal 12 aa], the protein stability index was 0.705 ± 0.03 under setting [1] and 0.688 ± 0.0086 (genetic background: wild type).

For DDECTYKMAKFK [YNL303W C-terminal 12 aa], the protein stability index reads like this: under setting [1], 0.68172 ± 0.00037; (genetic background: wild type) 0.664 ± 0.035.

Regarding DDEEDEEEGQVA [USO1 C-terminal 12 aa], the protein stability index by setting is: under setting [1], 0.704 ± 0.013; (genetic background: wild type) 0.66 ± 0.027.

Regarding DEEDEEDVKTEV [CAB3 C-terminal 12 aa], the protein stability index is 0.6848 ± 0.0014 under setting [1] and 0.664 ± 0.016 (genetic background: wild type).

For DEELFLLSKSLR [SPC98 C-terminal 12 aa], the protein stability index was determined as 0.724 ± 0.013 under setting [1] and 0.6784 ± 0.0026 (genetic background: wild type).

Regarding DEGRNTSSVVNK [MAL31 C-terminal 12 aa], the protein stability index runs as follows: under setting [1], 0.688 ± 0.0089; (genetic background: wild type) 0.7419 ± 0.0019.

The sequence DELTTVLNQLVR [EXO70 C-terminal 12 aa] had a protein stability index under setting [1] of 0.6823 ± 0.0024 and a protein stability index (genetic background: wild type) of 0.66 ± 0.011.

Take DEMHYSDEDSSE [RRN11 C-terminal 12 aa]: the protein stability index by setting is: under setting [1], 0.699 ± 0.073; (genetic background: wild type) 0.709 ± 0.028.

As to DEYFNEYNNNSN [TFB1 C-terminal 12 aa], the protein stability index stood at 0.7196 ± 0.0065 under setting [1] and 0.675 ± 0.013 (genetic background: wild type).

As to DGIRQVDDFQAQ [PRE1 C-terminal 12 aa], the protein stability index by setting is: under setting [1], 0.701 ± 0.012; (genetic background: wild type) 0.658 ± 0.0071.

For DGITLDMPLFEF [AOS1 C-terminal 12 aa], the protein stability index by setting is: under setting [1], 0.7107 ± 0.0043; (genetic background: wild type) 0.731 ± 0.047.

Regarding DHMQLTGRILVL [YJL132W C-terminal 12 aa], the protein stability index is, setting by setting: under setting [1], 0.58733 ± 0.00058; (genetic background: wild type) 0.5716 ± 0.0024.

Consider DHQVDFLGNKIL [YLR463C C-terminal 12 aa], for which the protein stability index by setting is: under setting [1], 0.712 ± 0.0082; (genetic background: wild type) 0.715 ± 0.022.

Take DHSNAFESILIF [TRS130 C-terminal 12 aa]: the protein stability index by setting is: under setting [1], 0.6353 ± 0.0054; (genetic background: wild type) 0.684 ± 0.093.

For DIPSEEGTKVIL [BSC3 C-terminal 12 aa], the protein stability index worked out at 0.701 ± 0.016 under setting [1] and 0.691 ± 0.011 (genetic background: wild type).

With DKELDSTFDTFG [MIF2 C-terminal 12 aa], the protein stability index came out at 0.701 ± 0.012 under setting [1] and 0.699 ± 0.023 (genetic background: wild type).

Take DKEWTNYATHIG [AYT1 C-terminal 12 aa]: the protein stability index is, setting by setting: under setting [1], 0.696 ± 0.019; (genetic background: wild type) 0.701 ± 0.013.

For DKIQDARNSSTK [MHP1 C-terminal 12 aa], the protein stability index runs as follows: under setting [1], 0.677 ± 0.028; (genetic background: wild type) 0.702 ± 0.041.

Take DKYLCMLKTCVF [NUT1 C-terminal 12 aa]: the protein stability index runs as follows: under setting [1], 0.515 ± 0.019; (genetic background: wild type) 0.517 ± 0.021.

DLVRTDQLCPNY [CQD1 C-terminal 12 aa]: the protein stability index is, setting by setting: under setting [1], 0.681 ± 0.021; (genetic background: wild type) 0.682 ± 0.035.

Turning to DNDNDDDIDSDN [RUP1 C-terminal 12 aa], the protein stability index came to 0.704 ± 0.051 under setting [1] and 0.6853 ± 0.0067 (genetic background: wild type).

As to DNFRERYFNNFN [TRM11 C-terminal 12 aa], the protein stability index stood at 0.71368 ± 0.00039 under setting [1] and 0.6816 ± 0.0054 (genetic background: wild type).

For DNGELDLSGFNI [MED2 C-terminal 12 aa], the protein stability index came out at 0.696 ± 0.013 under setting [1] and 0.734 ± 0.073 (genetic background: wild type).

Regarding DNQSLPNSEKIK [CST6 C-terminal 12 aa], the protein stability index by setting is: under setting [1], 0.711 ± 0.017; (genetic background: wild type) 0.7044 ± 0.0021.

As to DQPFYKKMFGKK [HXT3 C-terminal 12 aa], the protein stability index is, setting by setting: under setting [1], 0.6926 ± 0.0016; (genetic background: wild type) 0.698 ± 0.042.

For the sequence DRIESSSGRISW [SPC110 C-terminal 12 aa], the protein stability index reads like this: under setting [1], 0.702 ± 0.022; (genetic background: wild type) 0.681 ± 0.028.

As to DSEIEMLKGRLQ [EPO1 C-terminal 12 aa], the protein stability index under setting [1] was determined as 0.6666 ± 0.002 and the protein stability index (genetic background: wild type) was found to be 0.694 ± 0.026.

Regarding DSELGCCCCFFN [EDS1 C-terminal 12 aa], the protein stability index under setting [1] came out at 0.701 ± 0.03 and the protein stability index (genetic background: wild type) came out at 0.696 ± 0.018.

DSIADEFSSLYF [SPR6 C-terminal 12 aa]: the protein stability index is, setting by setting: under setting [1], 0.7689 ± 0.0042; (genetic background: wild type) 0.721 ± 0.046.

As for DSPDFKKHLEKK [RSM10 C-terminal 12 aa], the protein stability index is, setting by setting: under setting [1], 0.684 ± 0.025; (genetic background: wild type) 0.721 ± 0.046.

As for DSTVLDFVESIS [HER2 C-terminal 12 aa], the protein stability index was determined as 0.7089 ± 0.005 under setting [1] and 0.694 ± 0.06 (genetic background: wild type).

Turning to DTGNTIKCEFIL [ERG29 C-terminal 12 aa], the protein stability index was determined as 0.7022 ± 0.0068 under setting [1] and 0.699 ± 0.017 (genetic background: wild type).

On to DTTFPQDQHDID [PUT7 C-terminal 12 aa], for which the protein stability index under setting [1] came to 0.696 ± 0.012 and the protein stability index (genetic background: wild type) worked out at 0.629 ± 0.059.

As to DVETRVQNLEQT [DPB4 C-terminal 12 aa], the protein stability index by setting is: under setting [1], 0.713 ± 0.032; (genetic background: wild type) 0.699 ± 0.013.

As to DVIDTIMSKQEP [UGA4 C-terminal 12 aa], the protein stability index is 0.698 ± 0.02 under setting [1] and 0.6826 ± 0.0027 (genetic background: wild type).

As for DWAPGKQLEMNH [JAC1 C-terminal 12 aa], the protein stability index is, setting by setting: under setting [1], 0.699 ± 0.018; (genetic background: wild type) 0.743 ± 0.042.

In turn, EAADEADEADEE [RPS9A C-terminal 12 aa] yielded a protein stability index under setting [1] of 0.6914 ± 0.0068 and a protein stability index (genetic background: wild type) of 0.747 ± 0.017.

For the sequence EAEQTKAPKIQI [TMC1 C-terminal 12 aa], the protein stability index stood at 0.6728 ± 0.0043 under setting [1] and 0.701 ± 0.012 (genetic background: wild type).

Take EAHREQIGGATY [SMT3 C-terminal 12 aa]: the protein stability index by setting is: under setting [1], 0.691 ± 0.016; (genetic background: wild type) 0.676 ± 0.011.

For the sequence EAVDRIVSHDEL [SEC20 C-terminal 12 aa], the protein stability index is, setting by setting: under setting [1], 0.702 ± 0.014; (genetic background: wild type) 0.6744 ± 0.00081.

With ECRKKNYFKCKH [ATG39 C-terminal 12 aa], the protein stability index is, setting by setting: under setting [1], 0.692 ± 0.0091; (genetic background: wild type) 0.187 ± 0.0042.

Consider EDAFLKDVFQQS [KGD1 C-terminal 12 aa], for which the protein stability index came out at 0.7394 ± 0.0043 under setting [1] and 0.782 ± 0.093 (genetic background: wild type).

For EDESLNSSRSTT [RCF3 C-terminal 12 aa], the protein stability index is, setting by setting: under setting [1], 0.6802 ± 0.0033; (genetic background: wild type) 0.691 ± 0.013.

As to EDGVGDPREEDE [RAD51 C-terminal 12 aa], the protein stability index came out at 0.693 ± 0.023 under setting [1] and 0.6258 ± 0.0013 (genetic background: wild type).

With EDITVQVPDTPT [EST1 C-terminal 12 aa], the protein stability index reads like this: under setting [1], 0.708 ± 0.017; (genetic background: wild type) 0.674 ± 0.017.

EDPDFLQHALQS [GRX3 C-terminal 12 aa]: the protein stability index by setting is: under setting [1], 0.707 ± 0.013; (genetic background: wild type) 0.704 ± 0.013.

On to EDSSDSSDSDSD [BDF2 C-terminal 12 aa], for which the protein stability index is, setting by setting: under setting [1], 0.669 ± 0.015; (genetic background: wild type) 0.675 ± 0.068.

As for EEDIFYRNQVVF [YKR075C C-terminal 12 aa], the protein stability index stood at 0.738 ± 0.0081 under setting [1] and 0.777 ± 0.059 (genetic background: wild type).

As for EEDPEYFQHALQ [GRX4 C-terminal 12 aa], the protein stability index reads like this: under setting [1], 0.71049 ± 4e-05; (genetic background: wild type) 0.715 ± 0.049.

As to EEEKRHGIYLKC [GUP1 C-terminal 12 aa], the protein stability index was found to be 0.694 ± 0.029 under setting [1] and 0.647 ± 0.019 (genetic background: wild type).

Turning to EEFNKQLKDIEA [YOR289W C-terminal 12 aa], the protein stability index runs as follows: under setting [1], 0.69 ± 0.026; (genetic background: wild type) 0.661 ± 0.017.

With EEGQTQPEEESA [BUR6 C-terminal 12 aa], the protein stability index under setting [1] is 0.691 ± 0.0078 and the protein stability index (genetic background: wild type) is 0.692 ± 0.033.

Consider EERDRRRAQQGL [RPS4A C-terminal 12 aa], for which the protein stability index by setting is: under setting [1], 0.6948 ± 0.0053; (genetic background: wild type) 0.692 ± 0.05.

As to EFDDYESRMHGI [EAR1 C-terminal 12 aa], the protein stability index was found to be 0.73 ± 0.029 under setting [1] and 0.694 ± 0.0086 (genetic background: wild type).

As to EGEDEELDIDDI [TIF11 C-terminal 12 aa], the protein stability index runs as follows: under setting [1], 0.671 ± 0.0097; (genetic background: wild type) 0.6717 ± 0.0065.
